Assay results taken from patent publication US6469141B1, “D1-like dopamine receptor activity modifying protein” (Medical College of Georgia Research Institute Inc., priority 1998, dated 2002).

Experiments:
[1] = molecular target: T1, GSTD1 (C-terminal 81 residues of hD1 receptor) (Homo sapiens, UniProt P21728); assay: S-agarose pull-down assay with GSTD1 fusion protein; type: binding; details: immunoblot with D1 receptor antibodies
T1 construct: C-terminal 81 amino acids of the hD1 receptor (residues 365-446); made in house; host or cells: S-Calcyon: BL21(DE3) E. coli
T1 sequence (P21728 365-446): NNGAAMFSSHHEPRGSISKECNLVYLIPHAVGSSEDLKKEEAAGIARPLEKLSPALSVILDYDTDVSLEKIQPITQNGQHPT
Description: For pull-down assays, a 550 bp Nco I-Bgl II fragment from pACT-Calcyon was subcloned into pET30a (Novagen, Madison, Wis.) to produce the S-Calcyon fusion protein containing residues 93-217 of the predicted Calcyon protein as well as an N-terminal tag composed of the 15 residue S peptide of ribonuclease S (Richards, F. M., et al., The Enzymes. ed.: Boyer, P. D., Academic Press, N.Y., pp. 647-806 (1971)). The S-β-galactosidase fusion protein was composed of bacterial β-galactosidase protein tagged at its N-terminus with the S peptide. Fusion proteins were induced in BL2I(DE3) E. coli with IPTG, and coupled to S-agarose resin (Novagen, Madison, Wis.) by incubating soluble fractions of bacterial lysates with resin for 1 h at RT Following incubation, unbound proteins were eliminated by washing the resin three times in 50 volumes of 25 mM HEPES (pH 7.4), 50 mM NaCl. Interaction assays were performed with GSTD1 purified as described (Bergson, C., et al., J. Neurosci. 15:7821-36 (1995)) or solubilized lysates of D1 HEK293 cells in 25 mM HEPES (pH 7.4), 50 mM NaCl, 10% glycerol, 1% bovine serum albumin containing 0.5% NP-40. Peptidel 421-435 ([…]) (SEQ ID No. 3) and Peptide2 ([…]) (SEQ ID No. 4) were synthesized using an Applied Biosystems 430A Peptide Synthesizer using the FastMoc procedures and reagents supplied by Perkin-Elmer, Applied Biosystems division. […]

[2] = molecular target: T2, full-length D1 DA receptors (Homo sapiens, UniProt P21728); assay: S-agarose pull-down assay with D1 HEK293 cell lysates; type: binding; details: detergent solubilized D1 HEK293 lysates
T2 construct: expressed in transfected cells; host or cells: D1 HEK293 cell lysate (receptor); BL21(DE3) E. coli (S-Calcyon)
Description: For pull-down assays, a 550 bp Nco I-Bgl II fragment from pACT-Calcyon was subcloned into pET30a (Novagen, Madison, Wis.) to produce the S-Calcyon fusion protein containing residues 93-217 of the predicted Calcyon protein as well as an N-terminal tag composed of the 15 residue S peptide of ribonuclease S (Richards, F. M., et al., The Enzymes. ed.: Boyer, P. D., Academic Press, N.Y., pp. 647-806 (1971)). The S-β-galactosidase fusion protein was composed of bacterial β-galactosidase protein tagged at its N-terminus with the S peptide. Fusion proteins were induced in BL2I(DE3) E. coli with IPTG, and coupled to S-agarose resin (Novagen, Madison, Wis.) by incubating soluble fractions of bacterial lysates with resin for 1 h at RT Following incubation, unbound proteins were eliminated by washing the resin three times in 50 volumes of 25 mM HEPES (pH 7.4), 50 mM NaCl. […]
A human embryonic kidney (HEK) 293 cell line, designated D1 HEK293, that stably expresses hD1 receptors was used to test the ability of S-Calcyon to interact with full-length D1 DA receptors. […] Proteins retained by the S-tagged target polypeptides were analyzed by immunoblotting with D1 receptor antibodies as described above. […]

[3] = binding of 3H-labeled phospholipid vesicles to resin-bound S-Calcyon; details: 25 μl S-agarose resin, one hour, room temperature
Method: FIG. 4 is a graph showing that calcyon's cytoplasmic domain binds PIP2. S-Calcyon bound to 25 μl of S-agarose resin, or 25 μl of S-agarose resin only was incubated for one hour at room temperature with phospholipid vesicles containing phosphotidylcholine (PC), phosphotidylethanolamine (PE), or PC, PE, and PIP2. Both types of vesicles were radioactively labeled with equivalent amounts of ^3H-phosphatidylcholine. Following incubation, resins were washed three times with ten volumes of buffer (20 mM hepes, pH 7.4), and amounts of bound phospholipid determined by liquid scintillation counting. Results are reported as percent of input radiolabel precipitated. Bars represent average value obtained in three independent assays with standard error of the mean.
Tests were conducted to determine whether Calcyon can bind PIP2 using the S-Calcyon fusion protein. S-Calcyon contains the predicted cytoplasmic domain of Calcyon (residues 93-217) preceded by an ‘S’ tag (for coupling to S-agarose resin). […] Following incubation, resin was washed three times with ten volumes of buffer (20 mM Hepes, pH 7.4), and amounts of bound phospholipid were determined by liquid scintillation counting. […] Results are reported as percent of input radiolabel precipitated, bars represent the standard error of the mean of each value determined in triplicate. […]

T2 sequence (P21728 whole entry): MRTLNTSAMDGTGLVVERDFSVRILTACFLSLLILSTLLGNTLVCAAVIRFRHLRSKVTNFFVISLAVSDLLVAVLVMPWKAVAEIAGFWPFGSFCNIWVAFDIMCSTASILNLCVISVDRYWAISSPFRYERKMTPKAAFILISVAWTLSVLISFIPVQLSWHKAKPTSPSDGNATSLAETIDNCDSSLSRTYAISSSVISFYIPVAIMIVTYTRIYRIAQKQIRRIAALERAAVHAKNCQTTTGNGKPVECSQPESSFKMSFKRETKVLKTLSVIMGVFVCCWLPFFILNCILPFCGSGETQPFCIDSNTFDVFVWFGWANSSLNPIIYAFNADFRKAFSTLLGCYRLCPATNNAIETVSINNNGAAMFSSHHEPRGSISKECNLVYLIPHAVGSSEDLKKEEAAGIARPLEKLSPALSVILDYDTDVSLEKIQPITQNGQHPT

pull-down of full-length D1 receptor by resin-immobilized S-tagged protein [2]: Bands of similar size were also present
precipitation of PIP2 containing vesicles vs vesicles of PC and PE only [3]: more than five times more effectively
B1: S-Calcyon: fusion protein containing residues 93-217 of Calcyon with N-terminal 15 residue S peptide tag (protein)
chain: KETAAAKFERQHMDSMALLGCVLIMYKAIWYDQFTCPDGFLLRHKICTPLTLEMYYTEMDPERHRSILAAIGAYPLSRKHGTETPAAWGDGYRAAKEERKGPTQAGAAAAATEPPGKPSAKAEKEAARKAAGSAAPPPAQ
pull-down of GSTD1 by resin-immobilized S-tagged protein [1]: A D1 antibody reactive band of similar size was present
